Molecular target: T1, original peptide (Trichinella spiralis paramyosin-derived tetradecapeptide, …) (Trichinella spiralis)
T1 construct: also called Ts-pmy-derived peptide; original Ts-Pmy-derived peptide; source: synthetic peptide (solid-phase synthesis, GL Biochem; RP-HPLC purified up to 95%)
Assay: MST
Settings: both partners purified

T1 sequence (P02748 22-559): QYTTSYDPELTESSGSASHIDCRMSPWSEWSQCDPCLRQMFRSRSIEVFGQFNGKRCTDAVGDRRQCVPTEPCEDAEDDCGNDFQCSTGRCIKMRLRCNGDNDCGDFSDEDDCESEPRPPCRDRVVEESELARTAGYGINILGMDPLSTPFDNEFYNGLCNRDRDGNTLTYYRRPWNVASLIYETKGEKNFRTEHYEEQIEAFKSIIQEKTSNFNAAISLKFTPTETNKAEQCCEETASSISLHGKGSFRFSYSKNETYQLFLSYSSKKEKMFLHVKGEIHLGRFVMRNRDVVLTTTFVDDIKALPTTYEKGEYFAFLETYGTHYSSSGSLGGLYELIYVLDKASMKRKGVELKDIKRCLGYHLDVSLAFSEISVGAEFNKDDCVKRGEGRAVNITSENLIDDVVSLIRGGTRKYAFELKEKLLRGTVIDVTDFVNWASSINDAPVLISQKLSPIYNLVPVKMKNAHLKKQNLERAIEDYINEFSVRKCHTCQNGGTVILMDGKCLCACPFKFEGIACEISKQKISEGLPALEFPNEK

B1: human complement component C9 (natural protein)
chain: not shown
modifications: fluorescent probe NT-647 bound covalently (in the MST assay)
notes: also called human C9
binding result: binds
